Results published in US8926966B1 (Regents of the University of California, priority 1990, dated 2015).

Tests used:
[1] = tested on: NOD mice; assay: GAD immunization of 8 week old NOD mice, IDDM onset; format: in vivo, mouse
Excerpt: Breeder mice were purchased from Taconic Farms and housed under specific pathogen-free conditions. Only female NOD mice were used in this study. […] Insulitis is generally observed beginning at 4 weeks of age. […] The incidence of IDDM in female mice is 70-90% by one year of age.
Urine glucose levels were monitored twice weekly. After observing above normal glucose in urea, blood glucose levels were monitored twice weekly.

[2] = tested on: NOD mice
Experimental: 1. […] At 12 weeks of age, mice were examined for insulitis and autoantigen reactive T-cells. […] Pancreatic tissue sections were stained by immunoperoxidase techniques for insulin and were counterstained with hematoxylin. Insulitis was scored in a blinded manner by examining 54 to 87 islets on 5 interrupted tissue sections from each pancreas. Proliferative splenic T-cell responses induced by various antigens were performed as described above in Example 4. Data in Table 8 are expressed as the average [^3H]-thymidine label (cpm) incorporated in triplicate cultures.

[3] = tested on: NOD mice; assay: Insulitis score after tolerization of NOD mice; format: in vivo, mouse; settings: examined at 12 weeks
[4] = tested on: spleen cells of NOD, BALB/c and (NOD/BALB/c) F1 mice; settings: <4 or >16 week old NOD or control BALB/c or (NOD/BALB/c) F1 spleen cells
Experimental: Incorporation of label was measured by liquid scintillation counting.

[5] = tested on: autoantibodies to GAD in patient sera; assay: Immunoprecipitation of ^35S-GAD65 / ^35S-GAD67 by sera drawn prior to IDDM onset; format: binding, human; parameters: key to band intensity of immunoprecipitated ^35S-GAD: 1 = lowest; 2 = medium; 3 = highest band intensities
Experimental: (§1) Islet cells were extracted as previously described by Atkinson, et al. (Lancet, 335:1357-1360, 1990) with the following modifications. […] The protein A Sepharose CL-4B was then boiled in Laemmli sample buffer (Laemmli, Nature, 227:680-685, 1970), and the samples were subjected to SDS-PAGE and fluororadiography (Kodak, X-omat AR5) using Enhance (New England Nuclear). Alternatively, the autoradiographs were analyzed by a BETAGEN (Boston, Mass.) analyzer. Both 64KA positive and negative sera were used in each assay, to serve as interassay controls. All fluororadiographs were analyzed and rated as positive or negative after comparison with the known interassay controls. […] A similar rating procedure was employed for the intensity of bands corresponding to immunoprecipitated ^35S-GAD65 and ^35S-GAD67.
Rat GAD65 and GAD67 cDNAs were subcloned into a bacterial expression system as previously described. Labeling of ^35S-GADs was completed by pulsing IPTG induced bacterium (growing in Minimal Media) for 15 minutes with TRAN ^35S-label (ICN). Cultures were then spun down and resuspended and sonicated in 1 ml of homogenizing buffer (1 mM phenylmethylsulfonyl fluoride (PMSF), 1 mM 2-aminoethylisothiouronium Bromide (AET) and 60 mM potassium phosphate, pH 7.1). After sonication, cell debris was removed by centrifugation and protein concentration was measured (Bradford, Anal. Biochem., 72:248, […]) in the supernatant (supernatant was stored in aliquots at −70° C.).

[6] = tested on: autoantibodies to the 64 kD autoantigen; assay: Prior absorption of IDDM serum, recognition of 64 kD pancreatic polypeptide; format: binding; settings: human pancreatic islet cell lysate
Experimental: as §1
Prior absorption of these sera with GAD-6 monoclonal, which recognized GAD65 but not GAD67, or with bacterially produced GAD65, abolished the ability of the sera to recognize the 64 kD pancreatic polypeptide. […] In order to investigate the predictive value of GAD65, sera drawn from patients prior to onset of clinical manifestation of IDDM were tested for autoantibodies to GAD65.

glutamic acid decarboxylase [GAD]
significance of delay of diabetes versus β-gal immunized mice ([1]; 25 ug i.p. in IFA at 8 weeks, again every 6 weeks): < 0.02
onset of IDDM compared to control β-gal immunized mice ([1]; FIG. 11): clear delay in the onset of IDDM
immunized mice with no signs of hyperglycemia until 36 weeks in age ([1]; of 10 mice, 25 ug i.p. in IFA at 8 weeks, again every 6 weeks): 8
glucose levels of treated mice ([2]; all treated mice, n=17, presently 37 weeks old): normal glucose levels
insulitis at 30 weeks of age ([2]; five treated mice sacrificed at 30 weeks, one had very limited peri-insulitis): four mice were completely free of insulitis
insulitis score of the completely tolerized mice ([3]; NOD mice, 50 μg i.v. at 3 weeks): 0.0
Insultis Score ([3]; Table 8A: female NOD mice, i.v. at 3 weeks of age, 50 μg (hsp-p 0.1 μg) in PBS, scale 0-4, mean ± SE): 0.1 ± 0.1
T cell proliferation [4]: did not induce T cell proliferation

B1: GAD65: rat GAD65 expressed in bacteria, ^35S-labeled, in bacterial lysate (protein, UniProt Q05683 1-585, looked up)
Glutamate decarboxylase 2: MASPGSGFWSFGSEDGSGDPENPGTARAWCQVAQKFTGGIGNKLCALLYGDSEKPAESGGSVTSRAATRKVACTCDQKPCSCPKGDVNYALLHATDLLPACEGERPTLAFLQDVMNILLQYVVKSFDRSTKVIDFHYPNELLQEYNWELADQPQNLEEILTHCQTTLKYAIKTGHPRYFNQLSTGLDMVGLAADWLTSTANTNMFTYEIAPVFVLLEYVTLKKMREIIGWPGGSGDGIFSPGGAISNMYAMLIARYKMFPEVKEKGMAAVPRLIAFTSEHSHFSLKKGAAALGIGTDSVILIKCDERGKMIPSDLERRILEVKQKGFVPFLVSATAGTTVYGAFDPLLAVADICKKYKIWMHVDAAWGGGLLMSRKHKWKLNGVERANSVTWNPHKMMGVPLQCSALLVREEGLMQSCNQMHASYLFQQDKHYDLSYDTGDKALQCGRHVDVFKLWLMWRAKGTTGFEAHIDKCLELAEYLYNIIKNREGYEMVFDGKPQHTNVCFWFVPPSLRVLEDNEERMSRLSKVAPVIKARMMEYGTTMVSYQPLGDKVNFFRMVISNPAATHQDIDFLIEEIERLGQDL
modifications: 35S-labeled
notes: rat GAD65 expressed in bacteria, ^35S-labeled, in bacterial lysate
specimens immunoreactive ([5]; 9 out of 12 sera drawn prior to IDDM onset): 75%
band intensity of immunoprecipitated ^35S-GAD ([5]; serum of patient eight, drawn 8 months before IDDM onset): 0
band intensity of immunoprecipitated ^35S-GAD ([5]; serum of patient eleven, drawn 10 months before IDDM onset): 1
band intensity of immunoprecipitated ^35S-GAD ([5]; serum of patient five, drawn 34 months before IDDM onset): 1
band intensity of immunoprecipitated ^35S-GAD ([5]; serum of patient nine, drawn 42 months before IDDM onset): 1
band intensity of immunoprecipitated ^35S-GAD ([5]; serum of patient one, drawn 9 months before IDDM onset): 1
band intensity of immunoprecipitated ^35S-GAD ([5]; serum of patient seven, drawn 3 months before IDDM onset): 0
band intensity of immunoprecipitated ^35S-GAD ([5]; serum of patient six, drawn 11 months before IDDM onset): 0
band intensity of immunoprecipitated ^35S-GAD ([5]; serum of patient ten, drawn 25 months before IDDM onset): 1
band intensity of immunoprecipitated ^35S-GAD ([5]; serum of patient three, drawn 14 months before IDDM onset): 2
band intensity of immunoprecipitated ^35S-GAD ([5]; serum of patient twelve, drawn 4 months before IDDM onset): 1
band intensity of immunoprecipitated ^35S-GAD ([5]; serum of patient two, drawn 6 months before IDDM onset): 3
band intensity of immunoprecipitated ^35S-GAD ([5]; serum of patient, drawn 66 months before IDDM onset): 1
ability of patient four sera to recognize the 64 kD pancreatic polypeptide after prior absorption [6]: abolished
